From patent publication US5912224

Target: TGF-β type I receptor of Mv1Lu cells (mink)

TGFβ induced 3TP-Luc luciferase activity in Mv1Lu cells: 25 fold
Substance: myristylated FKBP12
